B1: PSD2 (parent)
chain: LTHFSRRYCQCNPDDSTSEDGIHT
B2: C22orf31 (parent)
chain: YSLELGKAIKQKLWEALCSQGAIS

Variants of: B1
Assay: protein stability index of a GFP-peptide fusion (GPS, HEK-293T) (PSI 1-6); higher = more stable
Conditions: c terminus: a fixed tail appended
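Further: lentivirally expressed fusions sorted by FACS into six bins by GFP to DsRed ratio, PSI derived from sequencing read proportions per bin multiplied by bin number.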

Protein stability index, by site and new letter:
G21: W 1.96 | A 3.57 | C 2.91 | Q 3.25 | M 2.86 | D 3.73 | F 2.69 | L 3.25 | H 3.34 | Y 2.68 | S 3.64 | T 4.09 | K 2.95 | R 2.93 | I 2.63 | P 3.57 | V 2.79 | N 3.33 | E 4.26
S18: V 2.35 | Y 2.35 | W 2.28
D20: I 1.97 | M 2.65 | T 2.86 | C 3.98 | K 2.74 | F 2.69 | Q 2.61 | H 2.99 | S 2.42 | L 2.31 | R 2.27 | N 2.5 | G 2.71 | W 1.46 | Y 1.81 | P 2.35 | E 3.64
E19: Q 3.39 | P 2.37 | S 2.44 | R 1.59 | D 3.34 | Y 1.93 | H 2.95 | N 2.84 | G 3.03 | V 3.33 | K 2.81 | W 1.87 | F 1.94 | T 3.02 | C 3.04 | I 2.2 | M 1.94 | L 2.15 | A 2.36
H23: G 3.69 | M 3.82 | W 2.62 | A 3.66 | T 2.75 | P 3.9 | C 3.16 | V 2.93 | E 3.91 | Q 3.73 | D 3.58 | R 2.95 | L 3.73 | S 4.2 | N 3.64 | I 3.21 | Y 3.58 | K 2.92 | F 2.01
T24: Y 2.34 | V 3.36 | F 2.08 | R 2.27 | N 3.4 | I 3.05 | Q 3.37 | M 2.52 | K 2.61 | S 3.02 | E 4.08 | A 3.46 | P 3.82 | C 2.68 | L 2.38 | W 2.26 | D 3.86 | G 3.27 | H 2.5
I22: H 3.7 | P 2.9 | M 3.49 | Q 3.85 | S 3.87 | T 3.59 | E 3.87 | V 3.71 | F 2.72 | A 3.91 | N 3.98 | L 3.24 | G 3.66 | Y 3.29 | K 3.12 | R 3.22 | W 2.43 | D 4.27

Variants of: B2
Assay: as above
Conditions: c terminus: a fixed tail appended

Protein stability index, by site and new letter:
S24: H 2.01 | A 2.68 | T 1.83 | N 2.63 | Q 2.92 | Y 3.7 | R 2.69
L5: H 2.19 | A 1.83 | D 2.11 | T 1.75 | P 1.62 | M 2.14 | Q 1.35 | G 1.82 | Y 1.86 | K 2.64
I9: F 2.02 | E 2.97 | A 1.35 | D 2.39 | T 2.38 | P 1.99 | G 1.84 | R 1.87 | K 2.24 | Y 3.02 | V 2.26
K10: N 2.54 | E 2.55 | Y 1.9 | Q 2.64 | F 3.08 | A 1.52 | P 2.27 | H 1.95 | C 2.31 | M 2.22
K7: D 2.63 | C 1.73 | E 2.34 | Y 2.1 | V 2.31 | G 1.24 | P 2.68 | I 3.6 | R 1.6 | Q 2 | T 2.46
A16: C 2.24 | M 2.69 | Q 1.89 | S 2.54 | R 2.1 | Y 1.89 | D 1.98 | L 1.77
L3: E 2.53 | V 3.15 | S 1.75 | F 2.43 | G 1.43 | T 1.89 | H 1.66 | P 1.64 | M 2.18 | A 2.39
G6: P 1.36 | S 1.25 | Q 1.98 | F 2.28 | W 3.02 | A 1.94 | E 2.03 | T 1.86 | K 1.73 | L 2.97 | Y 2.27 | H 1.59
W14: Y 1.78 | N 2.21 | S 1.85 | V 3.18 | I 3.71 | M 2.24 | K 2 | A 1.06 | G 3.06 | Q 1.83 | C 1.62 | L 3.37
A22: D 1.59 | S 3.11 | K 3.13 | R 3.87
G21: F 2.94 | A 4.53 | N 3.07 | I 4.15
L17: M 2.88 | E 1.69 | C 3.17 | W 1.19 | I 2.85 | G 2.05 | H 1.47 | V 3.22 | A 1.25 | D 2.62 | F 2.17
K12: L 2.66 | G 1.07 | A 3.38 | Q 2.26 | V 2.49 | S 1.39 | T 2.87 | E 1.85 | Y 1.93 | I 3.58 | F 2.11 | N 1.93 | C 2.03
Y1: T 3.1 | L 2.91 | D 1.87 | E 1.22 | I 3.2 | A 1.69 | N 2.16 | Q 2.81 | R 2.88 | H 2.79 | V 2.56
Q11: G 3.21 | R 3.36 | I 1.75 | P 1.36 | F 3.62 | Y 1.92
L13: T 1.88 | R 2.05 | D 2.37 | S 2.24 | Y 1.56 | F 1.13 | H 2.48 | E 3.05 | P 2.04 | N 2.63 | Q 1.92 | A 1.41 | K 1.47
E4: D 3.44 | W 3.56 | N 3.57 | L 2.69 | Y 3.11 | K 3.04 | A 2.96 | S 1.88 | G 1.56 | H 2.7 | F 3.85 | V 3.23 | Q 3.4
I23: H 1.63 | P 1.6 | D 1.62 | M 2.22 | E 2.37
S2: K 2.68 | V 1.12 | Q 1.57 | A 1.79 | G 2.35 | M 2.38 | T 2.86 | E 1.59 | R 2.42 | P 2.3 | D 1.56
A8: W 1.81 | R 2.51 | V 2.75 | H 2.73 | S 2.19 | D 1.76 | I 2.24 | N 2.57 | F 1.7
S19: N 3.94 | A 4.18 | Q 1.95 | C 2.31 | D 1.88 | F 2.56
C18: K 4.02 | H 1.66 | G 1.53 | I 3.32 | N 3.44 | A 1.69 | M 2.12 | D 2.09
E15: S 2.19 | W 1.9 | K 2.73 | G 1.31 | Q 1.41 | N 3 | R 3.18 | P 2.25 | C 3
Q20: I 2.97 | R 2.99 | G 3.45 | F 1.95 | N 1.62 | V 2.58
